US20080220446A1, “Method for Detecting and/or Removing Protein and/or Peptide Comprising a Cross-Beta Structure From an Aqueous Solution Comprising a Protein” (priority 2005, published 2008)

Key:
[1] = molecular target: T1, tPA (Homo sapiens, UniProt P00750); assay: tPA binding assay with immobilized biopharmaceuticals in an ELISA; settings: coated 1:10, one-site binding model
Procedure: Plates were washed twice with Tris buffered saline pH 7.2 containing 0.1% Tween20 (TBST) and blocked with PBS containing 1% Tween20 for 1 hour at room temperature. […] Plates were washed five times with TBST and incubated with peroxidase labeled anti-mouse immunoglobulins (RAMPO; DAKOCytomation, Glostrup, Denmark) diluted 1:3000 in PBST for 30 minutes at room temperature. Plates were washed five times with PBS 0.1% Tween20, and stained with 100 μL/well of tetramethyl-benzidine (TMB) substrate (Biosource Europe, Nivelles, Belgium). The reaction was terminated with 50 μL/well of 2 M H2SO4 and substrate conversion was read at 450 nm on a Spectramax340 microplate reader. Curves were fitted with a one-site binding model (GraphPad Prism version 4.02 for Windows, Graphpad Software, Calif., USA) from which Kd and Bmax were determined.
(§1) Protein therapeutics were obtained from the local hospital pharmacy and analyzed within the expiry limits as stated by the manufacturers.

[2] = ThT fluorescence enhancement by biopharmaceuticals; assay type: physicochemical; settings: +/− SD; five μL of protein therapeutic
Procedure: Fluorescence of ThT—protein/peptide adducts was measured as follows. […] Fluorescence was measured at 485 nm upon excitation at 435 nm. Background signals from buffer, buffer with ThT and protein/peptide solution without ThT were subtracted from corresponding measurements with protein solution incubated with ThT. Regularly, fluorescence of Aβ was used as a positive control, and fluorescence of FP10, a non-amyloid fibrin fragment^16, was used as a negative control. Fluorescence was measured in triplicate on a Hitachi F-4500 fluorescence spectrophotometer (Ltd., Tokyo, Japan).
β2-GPI was reduced and alkylated as follows. Sixhundredforty μl of β2-GPI stock was mixed with 640 μl of 8 M Urea (cooled solution) in 0.1 M Tris pH-8.2. The solution was degassed with N2 gas for approximately 6 minutes. From a 1 M DTT stock 12.8 μl was added to the solution, mixed and incubated for 3 hours at room temperature. A 1 M Iodoacetamide (Sigma; I-6125) was prepared, of which 25.6 μl was added to the β2-GPI reaction mixture. The solution was subsequently dialysed against PBS. […] Signals obtained with alkyl-β2gpi are compared with those obtained with native β2gpi starting material and with positive control acid/heat denatured amyloid-like misfolded γ-globulins.
as §1
(§2) Fluorescence of Thioflavin T (ThT; Sigma T-3516, St. Louis, Mo., USA) and Congo red (CR; Aldrich Chemical Company Inc., Milwaukee, Wis., USA) was measured on a Hitachi F-4500 spectrophotometer at an excitation wavelength of 435 nm and emission wavelength of 485 nm for ThT and an excitation wavelength of 550 nm and emission wavelength of 595 nm for Congo red. […] Fluorescence was measured in triplicate. Background fluorescence of both protein in buffer and dye-solution were subtracted from the total fluorescence signal. Five μg/mL fibrillar amyloid-β(1-40) E22Q (Peptide Synthesis Facility of the Dutch Cancer Institute NKI, Amsterdam, The Netherlands) was used as a positive control in all fluorescence assays.

[3] = molecular target: T1, tPA; assay: tPA ELISA with coated protein therapeutics; assay type: binding; settings: for binding of tPA: ELISA, stored at the recommended temperature of 4° C.
Procedure: Formulated protein therapeutics were obtained from the local hospital pharmacy and were used as supplied by the manufacturers. […] Lyophilized therapeutics were dissolved according to the manufacturers recommendations. GH, zinc-insulin, Cealb and gelatin were stored at −20, 4, room temperature, 37 and 65° C. Other protein therapeutics were only kept at 4° C., and assayed for the presence of cross-β structure at shown time points. Enhancement in fluorescence of ThT and Congo red was measured with all formulated protein therapeutics. For this purpose, proteins were diluted to the indicated concentrations. […] Zinc-insulin was diluted tenfold in the activation assay, GH was diluted to a final concentration of 500 μg ml^−1. Activation of factor XII and prekallikrein by the therapeutics was tested in the chromogenic factor XII assay (see above). […] After coating, plates were blocked with Blocking Reagent (Roche Diagnostics, Almere, The Netherlands).

[4] = Congo red fluorescence enhancement by biopharmaceuticals; assay type: physicochemical; settings: +/− SD; five μL of protein therapeutic
Procedure: Background signals from buffer, buffer with Congo red and protein/peptide solution without Congo red were subtracted from corresponding measurements with protein solution incubated with Congo red. Fluorescence was measured in triplicate on a Hitachi F-4500 fluorescence spectrophotometer (Ltd., Tokyo, Japan).
as §1, §2

[5] = molecular target: T2, LRP cl-IV (Homo sapiens, UniProt Q07954); assay: ELISA, LRP cluster IV binding to misfolded proteins; settings: coated at 5 μg/ml
T2 construct: Cluster IV of the low-density lipoprotein (LDL) receptor-related protein (LRP cl-IV); made in house; host or cells: HEK293E/S
Procedure: Binding of LRP cl-IV to misfolded protein was determined using an enzyme linked immuno sorbent assay (ELISA) set-up. For this purpose 50 μl of a 5 μg/ml solution of BSA, BSA-AGE, Hb or Hb-AGE or coat buffer (for negative control) was coated for 1 h with motion. Proteins were diluted in coat buffer (100 mM NaHCO3 pH 9.6). The BSA and Hb controls were prepared freshly by dissolving proteins at 1 mg/ml in PBS by rolling for 10 minutes on a roller bank at room temperature, 10 minutes incubation at 37° C. followed by again 10 minutes incubation at the roller bank. Coat controls were performed with anti-glycated protein antibody 4B5, anti-albumin antibody or anti Hb antibody. After coating the plates were washed twice with PBS/0.1% Tween-20 (v/v) and blocked with 300 μl/well blocking reagent (Roche Diagnostics, Almere, The Netherlands) for 1 h at room temperature with motion. […] After five washes with wash buffer binding of antibody was assessed with a secondary antibody. […] After 5 washes with wash buffer, binding of anti-FLAG antibody and secondary antibodies was assessed with 100 μl/well TMB substrate (ready to use from Tebu Bio). […] After ˜2 minutes absorbance was read at 450 nm.

T1 sequence (P00750 36-562): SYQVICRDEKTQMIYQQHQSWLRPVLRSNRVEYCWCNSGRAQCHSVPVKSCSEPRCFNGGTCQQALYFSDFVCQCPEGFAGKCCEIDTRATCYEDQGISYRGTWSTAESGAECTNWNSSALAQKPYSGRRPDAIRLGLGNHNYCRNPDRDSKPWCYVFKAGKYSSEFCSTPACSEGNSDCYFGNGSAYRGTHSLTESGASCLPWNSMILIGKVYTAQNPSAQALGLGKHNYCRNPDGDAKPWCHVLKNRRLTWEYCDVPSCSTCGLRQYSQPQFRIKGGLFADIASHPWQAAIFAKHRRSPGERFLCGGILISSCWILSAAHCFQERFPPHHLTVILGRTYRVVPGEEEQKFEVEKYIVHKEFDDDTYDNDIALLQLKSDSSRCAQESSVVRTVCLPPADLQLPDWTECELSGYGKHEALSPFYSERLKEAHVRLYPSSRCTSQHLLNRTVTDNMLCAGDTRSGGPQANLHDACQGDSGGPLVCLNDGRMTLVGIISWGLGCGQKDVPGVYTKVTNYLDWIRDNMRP
T2 sequence (Q07954 3332-3778): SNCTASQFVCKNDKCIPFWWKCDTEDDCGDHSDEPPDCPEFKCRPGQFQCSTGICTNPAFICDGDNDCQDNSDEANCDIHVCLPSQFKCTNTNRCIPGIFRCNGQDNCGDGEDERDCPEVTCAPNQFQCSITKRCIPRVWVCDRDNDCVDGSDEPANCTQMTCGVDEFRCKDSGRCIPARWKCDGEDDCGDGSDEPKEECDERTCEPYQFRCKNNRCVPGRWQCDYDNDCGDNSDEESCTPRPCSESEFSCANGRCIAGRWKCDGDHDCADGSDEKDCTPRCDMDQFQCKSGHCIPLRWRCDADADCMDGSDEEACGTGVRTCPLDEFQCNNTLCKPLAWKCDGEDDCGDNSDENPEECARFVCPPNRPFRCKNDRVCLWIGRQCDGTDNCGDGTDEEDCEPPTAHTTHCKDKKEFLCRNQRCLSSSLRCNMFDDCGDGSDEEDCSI

Row | tPA Binding Bmax [1] [OD450 nm] | binding of tPA [3] | Kd [1] [nM] | Kd ([3]; tPA ELISA, immobilized protein, stored at 4° C., read-out: KD of tPA binding) [nM] | binding of LRP cl-IV [5] | Substance | Fluorescence ThT [2] | Fluorescence CR [4]
1 | 0.5329 | binding of tPA was established | – | – | – | Abciximab: abciximab, an inhibitor of blood platelet aggregation (ReoPro, Centocor) | 8 +/− 8 a.u. | 25 +/− 1 a.u.
2 | 0.9369 | binding of tPA was established | 9.05 | 72 | – | Somatropin: human growth hormone (Genotropin, Pharmacia) | 1317 +/− 10 a.u. | 429 +/− 2 a.u.
3 | – | – | – | – | binds specifically | albumin-AGE: advanced glycation end-product modified bovine serum albumin | – | –
